These are literature values, as cited in US20260183395A1, “COMBINED THERAPIES USING IMMUNOMODULATING DRUGS” (ONK THERAPEUTICS LIMITED, priority 2022, published 2026).

The target of one data set is DR4 (Homo sapiens, UniProt O00220). Conditions: surface plasmon resonance; WO 2009/077857. (Surface plasmon resonance follows binding to a sensor surface in real time, without labels.)
For a further data set, the target named is T1, decoy receptor DcR1 (Homo sapiens, UniProt O14798).
T1 sequence (O14798 26-236): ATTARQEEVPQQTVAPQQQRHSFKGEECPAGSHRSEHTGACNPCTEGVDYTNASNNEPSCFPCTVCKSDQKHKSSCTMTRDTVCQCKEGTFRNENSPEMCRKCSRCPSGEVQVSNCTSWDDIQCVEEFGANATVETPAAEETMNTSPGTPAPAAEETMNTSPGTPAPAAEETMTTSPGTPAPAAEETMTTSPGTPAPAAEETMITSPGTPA
Conditions: surface plasmon resonance; WO 2009/077857.

One may read the Kd as a measure of binding affinity in units of concentration. Regarding “Wildtype TRAIL: Wildtype TRAIL ligand, baseline for the affinity of TRAIL variants/mutants”, the Kd with DR4 was greater than 2 nM; with decoy receptor DcR1 it was greater than 20 nM.
